The record followed here is PMC8809517, “Cofactor-independent RNA editing by a synthetic S-type PPR protein”.

The subject of series [1] is TRX-9S-S2 (synthetic construct (Selaginella-type S motif consensus)). Put plainly: ITC. The conditions noted are these: HRP: 50 mM Tris pH 8, 150 mM NaCl, 1 mM bME, 50 ug/ml BSA, 3 ug/ml yeast RNA, 0.5% heparin, 2 nM RNA; ITC (25 C) and FP: Tris pH 8, 200 mM KCl, 5% glycerol ….
Series [2] concerns TRX-9P-S2 (synthetic construct). Put plainly: ITC. As to conditions: HRP: 50 mM Tris pH 8, 150 mM NaCl, 1 mM bME, 50 ug/ml BSA, 3 ug/ml yeast RNA, 0.5% heparin, 2 nM RNA; ITC (25 C) and FP: Tris pH 8, 200 mM KCl, 5% glycerol ….
Series [3] concerns GFP-9S motif 4 LD (synthetic construct). Description: HRP pulldown. As to conditions: lysate, HRP: 50 mM Tris pH 8, 150 mM NaCl, 1 mM bME, 50 ug/ml BSA, 3 ug/ml yeast RNA, 0.5% heparin, 2 nM RNA, ITC (25 C) and FP: Tris pH 8, 200 mM KCl, 5% glycerol ….
The subject of series [4] is GFP-9S motif 4 TD (synthetic construct). Description: HRP pulldown. The conditions noted are these: HRP: 50 mM Tris pH 8, 150 mM NaCl, 1 mM bME, 50 ug/ml BSA, 3 ug/ml yeast RNA, 0.5% heparin, 2 nM RNA; ITC (25 C) and FP: Tris pH 8, 200 mM KCl, 5% glycerol ….
In series [5] the test system is GFP-9S motif 4 ID (synthetic construct). Put plainly: HRP pulldown. The conditions noted are these: lysate; HRP: 50 mM Tris pH 8, 150 mM NaCl, 1 mM bME, 50 ug/ml BSA, 3 ug/ml yeast RNA, 0.5% heparin, 2 nM RNA; ITC (25 C) and FP: Tris pH 8, 200 mM KCl, 5% glycerol ….
The subject of series [6] is GFP-9S motif 4 KD (synthetic construct). Description: HRP pulldown. As to conditions: lysate, HRP: 50 mM Tris pH 8, 150 mM NaCl, 1 mM bME, 50 ug/ml BSA, 3 ug/ml yeast RNA, 0.5% heparin, 2 nM RNA, ITC (25 C) and FP: Tris pH 8, 200 mM KCl, 5% glycerol ….
Series [7] deals with TRX-9S-S2 (synthetic construct (Selaginella-type S motif consensus)). Put plainly: fluorescence polarization. As to conditions: HRP: 50 mM Tris pH 8, 150 mM NaCl, 1 mM bME, 50 ug/ml BSA, 3 ug/ml yeast RNA, 0.5% heparin, 2 nM RNA; ITC (25 C) and FP: Tris pH 8, 200 mM KCl, 5% glycerol ….
For series [8], the system named is TRX-9S-E2 (synthetic construct). Description: MST. As to conditions: HRP: 50 mM Tris pH 8, 150 mM NaCl, 1 mM bME, 50 ug/ml BSA, 3 ug/ml yeast RNA, 0.5% heparin, 2 nM RNA; ITC (25 C) and FP: Tris pH 8, 200 mM KCl, 5% glycerol ….
Series [9] has as its system GFP-9S (synthetic construct). Description: HRP pulldown. The conditions noted are these: HRP: 50 mM Tris pH 8, 150 mM NaCl, 1 mM bME, 50 ug/ml BSA, 3 ug/ml yeast RNA, 0.5% heparin, 2 nM RNA; ITC (25 C) and FP: Tris pH 8, 200 mM KCl, 5% glycerol ….
The subject of series [10] is TRX-9S-S2 (synthetic construct (Selaginella-type S motif consensus)). Put plainly: HRP pulldown. The conditions noted are these: HRP: 50 mM Tris pH 8, 150 mM NaCl, 1 mM bME, 50 ug/ml BSA, 3 ug/ml yeast RNA, 0.5% heparin, 2 nM RNA; ITC (25 C) and FP: Tris pH 8, 200 mM KCl, 5% glycerol ….
Series [11] relates to TRX-AviTag-9S-S2 (synthetic construct). Put plainly: HRP pulldown. The conditions noted are these: HRP: 50 mM Tris pH 8, 150 mM NaCl, 1 mM bME, 50 ug/ml BSA, 3 ug/ml yeast RNA, 0.5% heparin, 2 nM RNA; ITC (25 C) and FP: Tris pH 8, 200 mM KCl, 5% glycerol ….
In series [12] the test system is TRX-9P-S2 (synthetic construct). Put plainly: HRP pulldown. The conditions noted are these: HRP: 50 mM Tris pH 8, 150 mM NaCl, 1 mM bME, 50 ug/ml BSA, 3 ug/ml yeast RNA, 0.5% heparin, 2 nM RNA; ITC (25 C) and FP: Tris pH 8, 200 mM KCl, 5% glycerol ….
Series [13] concerns the target T1, 9S-S2 PPR (synthetic construct).
T1 chain: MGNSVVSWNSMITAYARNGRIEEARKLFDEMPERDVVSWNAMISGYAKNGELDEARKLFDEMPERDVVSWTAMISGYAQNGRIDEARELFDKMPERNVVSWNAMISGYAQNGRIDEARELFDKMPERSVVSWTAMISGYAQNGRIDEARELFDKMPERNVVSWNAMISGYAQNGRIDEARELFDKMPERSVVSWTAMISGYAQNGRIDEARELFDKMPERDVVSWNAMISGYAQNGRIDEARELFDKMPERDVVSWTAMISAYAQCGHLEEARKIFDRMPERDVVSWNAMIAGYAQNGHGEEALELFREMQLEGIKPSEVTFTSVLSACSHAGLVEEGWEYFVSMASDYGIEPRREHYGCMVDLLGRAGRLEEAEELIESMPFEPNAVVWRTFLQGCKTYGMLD
Description: high-throughput RNA pulldown on Ni-NTA beads; HRP: 50 mM Tris pH 8, 150 mM NaCl, 1 mM beta-mercaptoethanol, 50 ug/ml BSA, 3 ug/ml yeast RNA, 0.5% heparin; ITC and FP: Tris pH 8, 200 mM KCl, 5% glycerol; MST: 50 mM Tris pH 8, 200 mM NaCl, 1 mM DTT, BSA, heparin, 0.05% Tween 20. The conditions noted are these: protein: recombinant; tags: N-terminal TRX-His; label: 5' Cy5.

Series [14] has as its target T1, 9S-S2 PPR. Description: isothermal titration calorimetry; HRP: 50 mM Tris pH 8, 150 mM NaCl, 1 mM beta-mercaptoethanol, 50 ug/ml BSA, 3 ug/ml yeast RNA, 0.5% heparin; ITC and FP: Tris pH 8, 200 mM KCl, 5% glycerol; MST: 50 mM Tris pH 8, 200 mM NaCl, 1 mM DTT, BSA, heparin, 0.05% Tween 20. As to conditions: protein: recombinant; tags: N-terminal TRX-His.
For series [15], the target named is T2, 9P-S2 (synthetic construct).
T2 chain: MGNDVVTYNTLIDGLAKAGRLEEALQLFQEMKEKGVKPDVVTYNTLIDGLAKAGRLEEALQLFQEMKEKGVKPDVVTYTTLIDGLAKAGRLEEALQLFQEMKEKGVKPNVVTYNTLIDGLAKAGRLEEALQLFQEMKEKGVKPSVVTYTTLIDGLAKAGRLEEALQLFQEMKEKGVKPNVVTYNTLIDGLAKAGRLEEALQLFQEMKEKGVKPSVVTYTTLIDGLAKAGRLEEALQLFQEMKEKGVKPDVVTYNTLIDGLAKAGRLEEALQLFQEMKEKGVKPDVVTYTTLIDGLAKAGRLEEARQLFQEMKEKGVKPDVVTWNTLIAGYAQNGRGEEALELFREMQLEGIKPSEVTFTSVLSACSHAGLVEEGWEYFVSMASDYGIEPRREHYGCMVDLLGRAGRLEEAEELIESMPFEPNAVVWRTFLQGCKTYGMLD
Described as above. As to conditions: protein: recombinant; tags: N-terminal TRX-His.

Series [16] concerns the target T1, 9S-S2 PPR. Description: fluorescence polarization; HRP: 50 mM Tris pH 8, 150 mM NaCl, 1 mM beta-mercaptoethanol, 50 ug/ml BSA, 3 ug/ml yeast RNA, 0.5% heparin; ITC and FP: Tris pH 8, 200 mM KCl, 5% glycerol; MST: 50 mM Tris pH 8, 200 mM NaCl, 1 mM DTT, BSA, heparin, 0.05% Tween 20. The conditions noted are these: protein: recombinant; tags: N-terminal TRX-His; label: fluorescein. In general terms: In fluorescence polarisation assays a small probe gives low polarisation when free and higher when bound to something large.

Where [17] appears, read: Kd above 200 nM called unreliable.

Broadly, the Kd is the free concentration of one partner at which half of the binding sites on the other are occupied at equilibrium, for simple one-to-one binding. Turning to UUACACGUG [rpoA footprint (ITC)], the equilibrium dissociation constant (Kd) stood at 48 nM in [1] and 239 nM in series [2].

For AUUAGACGUGA [Cy5-rpoA-G], the Kd in series [3] is 183 nM; in [4], 14 nM; in [5] it was 127 nM; in series [6] (setting [17]), 315 nM.

As for AUUAUACGUGA [IR-rpoA-U], the values for the dissociation constant Kd in series [3], in [5] and in series [6] (setting [17]) were 66.3 nM, 53.5 nM and 279 nM, respectively.

On to AUUAAACGUGA [IR-rpoA-A], for which the values for the Kd in [3] (setting [17]), in series [5] and in series [6] (setting [17]) were 452 nM, 175 nM and 409 nM, respectively.

On to AUUACACGUG [rpoA (FP)], for which the Kd in series [7] came out at 7.6 nM.

For AUUACACGUGA [Cy5-rpoA], the dissociation constant Kd stood at 6.8 nM in [8]; 214 nM in [3] (setting [17]); 12 nM in [9]; 280 nM in series [4]; 6.4 nM in [10]; 5.3 nM in [11]. The dissociation constant Kd came to 68 nM in series [12], 153 nM in series [5] and 189 nM in [6].

As for CAGCAACAGAAGCCCAAGCUCAUGGA (ssRNA) [Cy5-clpP (clpP1)], the binding result in series [13] is reported as “no binding”.

Consider UUACACGUG (ssRNA) [rpoA footprint (ITC)], for which the equilibrium dissociation constant (Kd) in series [14] came to 48 nM; in series [15] it was 239 nM.

As for AUUACACGUG (ssRNA) [rpoA (FP)], in series [16], the dissociation constant Kd amounted to 7.6 nM.
